Experimental data published in publication PMC5908291, “The JmjN domain as a dimerization interface and a targeted inhibitor of KDM4 demethylase activity” (Oncotarget, 2018).

B2: KDM4C with a C-terminal YN or YC tag (enzyme, human, UniProt Q9H3R0 1-1056, looked up)
chain: MEVAEVESPLNPSCKIMTFRPSMEEFREFNKYLAYMESKGAHRAGLAKVIPPKEWKPRQCYDDIDNLLIPAPIQQMVTGQSGLFTQYNIQKKAMTVKEFRQLANSGKYCTPRYLDYEDLERKYWKNLTFVAPIYGADINGSIYDEGVDEWNIARLNTVLDVVEEECGISIEGVNTPYLYFGMWKTTFAWHTEDMDLYSINYLHFGEPKSWYAIPPEHGKRLERLAQGFFPSSSQGCDAFLRHKMTLISPSVLKKYGIPFDKITQEAGEFMITFPYGYHAGFNHGFNCAESTNFATVRWIDYGKVAKLCTCRKDMVKISMDIFVRKFQPDRYQLWKQGKDIYTIDHTKPTPASTPEVKAWLQRRRKVRKASRSFQCARSTSKRPKADEEEEVSDEVDGAEVPNPDSVTDDLKVSEKSEAAVKLRNTEASSEEESSASRMQVEQNLSDHIKLSGNSCLSTSVTEDIKTEDDKAYAYRSVPSISSEADDSIPLSSGYEKPEKSDPSELSWPKSPESCSSVAESNGVLTEGEESDVESHGNGLEPGEIPAVPSGERNSFKVPSIAEGENKTSKSWRHPLSRPPARSPMTLVKQQAPSDEELPEVLSIEEEVEETESWAKPLIHLWQTKSPNFAAEQEYNATVARMKPHCAICTLLMPYHKPDSSNEENDARWETKLDEVVTSEGKTKPLIPEMCFIYSEENIEYSPPNAFLEEDGTSLLISCAKCCVRVHASCYGIPSHEICDGWLCARCKRNAWTAECCLCNLRGGALKQTKNNKWAHVMCAVAVPEVRFTNVPERTQIDVGRIPLQRLKLKCIFCRHRVKRVSGACIQCSYGRCPASFHVTCAHAAGVLMEPDDWPYVVNITCFRHKVNPNVKSKACEKVISVGQTVITKHRNTRYYSCRVMAVTSQTFYEVMFDDGSFSRDTFPEDIVSRDCLKLGPPAEGEVVQVKWPDGKLYGAKYFGSNIAHMYQVEFEDGSQIAMKREDIYTLDEELPKRVKARFSTASDMRFEDTFYGADIIQGERKRQRVLSSRFKNEYVADPVYRTFLKSSFQKKCQKRQ
notes: Lysine demethylase KDM4C (GASC1), human, ORF amplified from pCMV-HA-GASC1; 1056 aa as printed; BiFC pair: one molecule stands for the YN and the YC conjugate; also called KDM4C-YN; KDM4C-YC; source: HEK293, transiently transfected, in cells; not shown: YN (Venus YFP residues 1-172) on one copy or YC (Venus YFP residues 155-238) on the other, C-terminal, kept

Assays:
Assay in all cases: split reporter (BiFC, NanoBiT); BiFC (Venus YN + YC), IF microscopy of fixed HEK293 cells with quantitative image analysis (Imaris): mean reconstituted YFP fluorescence in each anti-YFP positive cell, >100 cells for each transfection
[1] = molecular target: B2
[2] = molecular target: KDM4B with a C-terminal YN or YC tag (human) (UniProt O94953)
Chain of KDM4B with a C-terminal YN or YC tag (human) (O94953 whole entry): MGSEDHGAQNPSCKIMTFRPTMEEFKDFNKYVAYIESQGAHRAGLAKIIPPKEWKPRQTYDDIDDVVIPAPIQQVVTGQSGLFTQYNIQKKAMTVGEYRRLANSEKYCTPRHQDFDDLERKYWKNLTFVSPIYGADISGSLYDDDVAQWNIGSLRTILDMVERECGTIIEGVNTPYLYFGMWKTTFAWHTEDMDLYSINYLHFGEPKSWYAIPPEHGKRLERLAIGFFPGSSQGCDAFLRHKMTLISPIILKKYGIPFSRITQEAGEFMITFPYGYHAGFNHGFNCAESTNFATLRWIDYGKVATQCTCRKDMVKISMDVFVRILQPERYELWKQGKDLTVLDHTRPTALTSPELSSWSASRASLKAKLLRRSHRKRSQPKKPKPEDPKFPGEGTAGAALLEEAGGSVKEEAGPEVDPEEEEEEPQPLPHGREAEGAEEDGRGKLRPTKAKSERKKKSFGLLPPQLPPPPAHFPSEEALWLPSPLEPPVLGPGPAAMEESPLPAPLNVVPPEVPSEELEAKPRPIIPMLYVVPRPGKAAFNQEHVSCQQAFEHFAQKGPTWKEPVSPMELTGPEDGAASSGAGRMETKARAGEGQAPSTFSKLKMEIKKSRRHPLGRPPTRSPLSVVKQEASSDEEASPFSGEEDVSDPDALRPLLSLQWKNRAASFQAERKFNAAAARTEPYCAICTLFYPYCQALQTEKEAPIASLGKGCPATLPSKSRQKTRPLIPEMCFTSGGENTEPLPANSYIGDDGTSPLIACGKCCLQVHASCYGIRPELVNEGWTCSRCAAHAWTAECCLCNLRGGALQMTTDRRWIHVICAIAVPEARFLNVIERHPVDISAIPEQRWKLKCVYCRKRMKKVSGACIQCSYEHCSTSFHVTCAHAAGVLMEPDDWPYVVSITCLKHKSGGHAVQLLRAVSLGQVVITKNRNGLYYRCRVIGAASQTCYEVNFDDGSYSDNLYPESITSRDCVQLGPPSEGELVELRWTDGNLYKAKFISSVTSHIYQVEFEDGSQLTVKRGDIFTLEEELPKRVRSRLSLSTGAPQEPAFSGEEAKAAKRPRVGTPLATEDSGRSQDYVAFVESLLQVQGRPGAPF

[3] = molecular target: the molecule itself

Molecule: KDM4B with a C-terminal YN or YC tag (from UniProt O94953 1-1096) (enzyme)
- YFP fluorescence (BiFC), Average (arbitrary units) [1]: 170
- YFP fluorescence (BiFC), Max (arbitrary units) [1]: 356
- YFP fluorescence (BiFC), Median (arbitrary units) [1]: 146
- YFP fluorescence (BiFC), Min (arbitrary units) [1]: 50
- YFP fluorescence (BiFC), Average (arbitrary units) [2]: 129
- YFP fluorescence (BiFC), Max (arbitrary units) [2]: 320
- YFP fluorescence (BiFC), Median (arbitrary units) [2]: 120
- YFP fluorescence (BiFC), Min (arbitrary units) [2]: 48

B1: KDM4A with a C-terminal YN or YC tag (enzyme, human, UniProt O75164 1-1064, looked up)
chain: MASESETLNPSARIMTFYPTMEEFRNFSRYIAYIESQGAHRAGLAKVVPPKEWKPRASYDDIDDLVIPAPIQQLVTGQSGLFTQYNIQKKAMTVREFRKIANSDKYCTPRYSEFEELERKYWKNLTFNPPIYGADVNGTLYEKHVDEWNIGRLRTILDLVEKESGITIEGVNTPYLYFGMWKTSFAWHTEDMDLYSINYLHFGEPKSWYSVPPEHGKRLERLAKGFFPGSAQSCEAFLRHKMTLISPLMLKKYGIPFDKVTQEAGEFMITFPYGYHAGFNHGFNCAESTNFATRRWIEYGKQAVLCSCRKDMVKISMDVFVRKFQPERYKLWKAGKDNTVIDHTLPTPEAAEFLKESELPPRAGNEEECPEEDMEGVEDGEEGDLKTSLAKHRIGTKRHRVCLEIPQEVSQSELFPKEDLSSEQYEMTECPAALAPVRPTHSSVRQVEDGLTFPDYSDSTEVKFEELKNVKLEEEDEEEEQAAAALDLSVNPASVGGRLVFSGSKKKSSSSLGSGSSRDSISSDSETSEPLSCRAQGQTGVLTVHSYAKGDGRVTVGEPCTRKKGSAARSFSERELAEVADEYMFSLEENKKSKGRRQPLSKLPRHHPLVLQECVSDDETSEQLTPEEEAEETEAWAKPLSQLWQNRPPNFEAEKEFNETMAQQAPHCAVCMIFQTYHQVEFGGFNQNCGNASDLAPQKQRTKPLIPEMCFTSTGCSTDINLSTPYLEEDGTSILVSCKKCSVRVHASCYGVPPAKASEDWMCSRCSANALEEDCCLCSLRGGALQRANDDRWVHVSCAVAILEARFVNIAERSPVDVSKIPLPRFKLKCIFCKKRRKRTAGCCVQCSHGRCPTAFHVSCAQAAGVMMQPDDWPFVVFITCFRHKIPNLERAKGALQSITAGQKVISKHKNGRFYQCEVVRLTTETFYEVNFDDGSFSDNLYPEDIVSQDCLQFGPPAEGEVVQVRWTDGQVYGAKFVASHPIQMYQVEFEDGSQLVVKRDDVYTLDEELPKRVKSRLSVASDMRFNEIFTEKEVKQEKKRQRVINSRYREDYIEPALYRAIME
notes: Lysine demethylase KDM4A (JmjD2A), human, ORF amplified from pCMV-HA-JmjD2A; BiFC pair: one molecule stands for the YN and the YC conjugate; also called KDM4A-YN; KDM4A-YC; source: HEK293, transiently transfected, in cells; not shown: YN (Venus YFP residues 1-172) on one copy or YC (Venus YFP residues 155-238) on the other, C-terminal, kept
- YFP fluorescence (BiFC), Average [3]: 943 arbitrary units
- YFP fluorescence (BiFC), Max [3]: 3140 arbitrary units
- YFP fluorescence (BiFC), Median [3]: 726 arbitrary units
- YFP fluorescence (BiFC), Min [3]: 259 arbitrary units
- YFP fluorescence (BiFC), Average ([1]; partners not purified): 845 arbitrary units
- YFP fluorescence (BiFC), Max ([1]; partners not purified): 3080 arbitrary units
- YFP fluorescence (BiFC), Median ([1]; partners not purified): 717 arbitrary units
- YFP fluorescence (BiFC), Min ([1]; partners not purified): 320 arbitrary units
- YFP fluorescence (BiFC), Average (arbitrary units) [2]: 110
- YFP fluorescence (BiFC), Max (arbitrary units) [2]: 309
- YFP fluorescence (BiFC), Median (arbitrary units) [2]: 104
- YFP fluorescence (BiFC), Min (arbitrary units) [2]: 19

Molecule: B2
- YFP fluorescence (BiFC), Average [3]: 741 arbitrary units
- YFP fluorescence (BiFC), Max [3]: 2890 arbitrary units
- YFP fluorescence (BiFC), Median [3]: 628 arbitrary units
- YFP fluorescence (BiFC), Min [3]: 204 arbitrary units
